Test results: patent publication US20240382604A1 (GUANGZHOU MEDICAL UNIVERSITY, published 2024)
No end group written: not given here.

Biological target: papain-like protease (PLpro), enzyme used in the in vitro enzyme assay (SARS-CoV-2, UniProt P0DTD1 1564-1878, limits assumed)
Experiment: cell-based or functional assay

SRLRGG-GRL0617 [peptide-drug conjugate RG-17 (polypeptide SRLRGG linked with GRL0617)]
IC50, inhibition of PLpro activity in the in vitro enzyme assay (hydrolysis of substrate RLRGG-AMC, AMC fluorescence): 1400 nM
